The target of data set [1] is T1, Opaque2 (Zea mays, UniProt P12959 P12959:1-453).
T1 sequence: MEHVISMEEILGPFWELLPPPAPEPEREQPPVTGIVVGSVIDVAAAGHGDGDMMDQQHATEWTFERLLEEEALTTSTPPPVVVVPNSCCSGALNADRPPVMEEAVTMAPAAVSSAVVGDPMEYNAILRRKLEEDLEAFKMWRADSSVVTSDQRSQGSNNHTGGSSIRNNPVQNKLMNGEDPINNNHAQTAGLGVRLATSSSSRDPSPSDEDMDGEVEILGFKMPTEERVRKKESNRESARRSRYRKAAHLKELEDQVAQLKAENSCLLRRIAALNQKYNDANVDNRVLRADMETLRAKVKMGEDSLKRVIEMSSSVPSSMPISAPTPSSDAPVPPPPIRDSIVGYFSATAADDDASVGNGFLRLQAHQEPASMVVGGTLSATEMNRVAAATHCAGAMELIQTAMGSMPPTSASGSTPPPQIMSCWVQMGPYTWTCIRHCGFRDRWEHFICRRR
Put plainly: cell_activity; 1x21-bp reporter; 5x21-bp 114.7-fold. An excerpt:
(§1) In addition, reporter plasmids, into which the GUS gene, and one or three repeat(s) of the 12-bp GCN4 motif or one or five repeat(s) of the 21-bp GCN4 motif were inserted, were constructed. For negative control experiments, a reporter plasmid comprising four repeats of a mutant 12-bp GCN4 motif and the GUS reporter gene was used. The mutant 12-bp GCN4 motif has a mutation in the target sequence that is recognized by the RISBZ1 and O2. These plasmid constructs were introduced alone or in combination with other reporter or effector plasmid into rice protoplast cells prepared from its callus culture, and the GUS activity was assayed. When the reporter plasmid or effector plasmid was introduced alone into the protoplast, the GUS activity was detected at a low level. […] Even in the presence of these effector plasmids, the transcriptional activity of the GUS gene downstream of the mutant 12-bp GCN4 motif was the same level as that of background. […] The transcriptional activity of the reporter gene induced by the RISBZ1 gene product was slightly higher than that induced by the O2 gene product. […] 1 to 12 copies of 21-bp GCN motif were assayed, and the transcriptional activity was enhanced proportionately up to 9 copies. […]

Data set [2] deals with T2, RISBZ1 (Oryza sativa, UniProt Q6ZLB0 SEQ:1-436).
T2 sequence: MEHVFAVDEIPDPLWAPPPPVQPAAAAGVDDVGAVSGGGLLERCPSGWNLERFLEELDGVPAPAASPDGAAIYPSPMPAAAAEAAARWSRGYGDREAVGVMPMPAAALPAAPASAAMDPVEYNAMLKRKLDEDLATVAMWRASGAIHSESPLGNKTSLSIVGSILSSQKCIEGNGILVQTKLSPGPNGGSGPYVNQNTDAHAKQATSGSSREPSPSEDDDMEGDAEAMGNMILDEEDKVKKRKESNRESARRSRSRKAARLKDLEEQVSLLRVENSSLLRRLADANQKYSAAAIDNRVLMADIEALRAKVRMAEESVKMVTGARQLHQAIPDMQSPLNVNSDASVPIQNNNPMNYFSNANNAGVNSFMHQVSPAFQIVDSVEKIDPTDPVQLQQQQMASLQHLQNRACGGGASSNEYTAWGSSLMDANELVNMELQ
Put plainly: cell_activity; 1x21-bp reporter; 5x21-bp 127.1-fold.
Source text: as §1

Data set [3] deals with the molecule itself. Put plainly: gel shift assay of the Examples. For orientation: In EMSA bound probe runs differently from free probe, usually more slowly.

B1: 21-bp GCN4 reporter (dsDNA)
DNA 1: GTTTGTCATGGCTGAGTCATG
DNA 2: CATGACTCAGCCATGACAAAC
Regarding B1, the values for the activity in data set [1] and in data set [2] were 37.9 fold and 43.9 fold, respectively.

B2: full-length RISBZ1 protein (other)
chain: T2 sequence
notes: Untagged full-length protein translated in vitro from pET8c (TNT coupled wheat germ extract); the crude extract was used in the gel shift assay; also called rice seed b-Zipper 1
Take B2: the binding result in data set [3] is listed as “binds”.

The record behind these values is patent publication US20040072159A1, “Bzip type transcription factors regulating the expression of rice storage protein” (published 2004).
